This is an account of results in patent US20240116985A1, “STAPLED PEPTIDES AND METHODS THEREOF” (priority 2020, published 2024).

For test [1], the target named is full-length beta-Catenin (Uniprot ID P35222) (Homo sapiens (Human)) (UniProt P35222). Nature of the test: fluorescence polarization competition against 5FAM TCF4 10-53 probe. (In general: Polarisation of emitted light reports the rotation of a fluorescent probe.)
For test [2] the target is unchanged. Nature of the test: fluorescence polarization competition against 5FAM-TCF4(10-53) on full-length beta-catenin.
The target is the same in test [3]. Kind of test: fluorescence polarization competition; full-length beta-catenin + 5FAM-TCF4(10-53) probe.
A further test concerns the target Bcat-Halo (UniProt P35222). Kind of test: NanoBRET Abs IC50, HEK293 cells, Bcat-Halo/TCF4-Luc; competitor TCF4-Luc. For orientation: In BRET a luciferase serves as donor, and the signal depends on an acceptor being close.
The target of test [4] is full-length beta-Catenin (Uniprot ID P35222) (Homo sapiens (Human)) (UniProt P35222). Nature of the test: cell-based or functional assay.

Starred links: 1 amine or outer side, 2 acyl side, 3 side chain; linkers in the order of their positions; H or OH if unused. Positions of bridges follow the written chain, without caps; N, C: chain ends. Non-standard residues stand in square brackets, D forms with d. Primed or numbered codes have the meaning given here. *: point of attachment. B5(10) = 2-amino-2-(pent-4-en-1-yl)hept-6-enoic acid, bis(4-pentenyl)glycine, stitching residue bearing both staples, C=CCCCC(CCCC=C)(N[*:1])C(=O)[*:2]; PyrS2″ = (S)-3-amino-1-((pent-4-en-1-yloxy)carbonyl)pyrrolidine-3-carboxylic acid (stapling residue), C=CCCCOC(=O)N1CC[C@@](N[*:1])(C(=O)[*:2])C1; B5(5) = 2,2-bis(4-pentenyl)glycine, 2-amino-2-(pent-4-en-1-yl)hept-6-enoic acid (stitching residue), C=CCCCC(CCCC=C)(N[*:1])C(=O)[*:2]; PyrS2 = (S)-3-amino-1-((pent-4-en-1-yloxy)carbonyl)pyrrolidine-3-carboxylic acid, C=CCCCOC(=O)N1CC[C@@](N[*:1])(C(=O)[*:2])C1; B5(3) = 2,2-bis(4-pentenyl)glycine (stitching residue), C=CCCCC(CCCC=C)(N[*:1])C(=O)[*:2]; BzAm2Allyl = N-terminal 2-allylbenzoic acid (acyl cap), C=CCc1ccccc1C(=O)*; 4pentenyl = N-terminal pent-4-enoic acid (acyl cap), C=CCCC(=O)*; 5hexenyl = N-terminal hex-5-enoic acid (acyl cap), C=CCCCC(=O)*; 3butenyl = N-terminal but-3-enoic acid (acyl cap), C=CCC(=O)*; Phe(3-COOH) = N[C@@H](Cc1cccc(C(=O)O)c1)C(=O)O; Phe(2-Cl) = N[C@@H](Cc1ccccc1Cl)C(=O)O; 1Nal = N[C@@H](Cc1cccc2ccccc12)C(=O)O; Bta = N[C@@H](Cc1csc2ccccc12)C(=O)O; Lys(iPr) = CC(C)NCCCC[C@H](N)C(=O)O; αAllylPro = C=CC[C@@]1(C(=O)O)CCCN1; tBuAla = CC(C)(C)C[C@H](N)C(=O)O; 3Thi = N[C@@H](Cc1ccsc1)C(=O)O; iPr = CC(C)*

Bcat-Halo, sequence (P35222 whole entry): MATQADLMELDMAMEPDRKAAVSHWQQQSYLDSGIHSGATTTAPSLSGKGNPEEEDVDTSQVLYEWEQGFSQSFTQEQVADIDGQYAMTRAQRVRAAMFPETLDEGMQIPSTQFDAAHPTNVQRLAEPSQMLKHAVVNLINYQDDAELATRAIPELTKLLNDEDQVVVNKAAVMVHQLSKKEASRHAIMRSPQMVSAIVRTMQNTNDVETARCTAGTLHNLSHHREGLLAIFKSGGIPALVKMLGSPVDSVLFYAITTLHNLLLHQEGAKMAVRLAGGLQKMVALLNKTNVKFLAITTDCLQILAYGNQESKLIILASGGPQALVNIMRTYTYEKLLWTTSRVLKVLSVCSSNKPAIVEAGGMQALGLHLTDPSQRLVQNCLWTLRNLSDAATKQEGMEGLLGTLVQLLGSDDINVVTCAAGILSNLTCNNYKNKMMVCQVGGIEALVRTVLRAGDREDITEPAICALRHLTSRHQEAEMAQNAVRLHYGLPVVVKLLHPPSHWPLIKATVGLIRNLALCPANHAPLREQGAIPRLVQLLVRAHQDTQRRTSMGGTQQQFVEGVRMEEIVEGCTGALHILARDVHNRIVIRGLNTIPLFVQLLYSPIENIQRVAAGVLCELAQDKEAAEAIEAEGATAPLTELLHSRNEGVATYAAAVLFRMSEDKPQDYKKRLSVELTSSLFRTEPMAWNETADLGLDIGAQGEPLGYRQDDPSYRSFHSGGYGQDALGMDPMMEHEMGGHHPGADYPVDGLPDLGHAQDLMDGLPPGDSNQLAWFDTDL
full-length beta-Catenin (Uniprot ID P35222) (Homo sapiens (Human)), sequence (P35222 whole entry, one chain of several): as the sequence (P35222 whole entry) above

B1: I-2609 (peptide)
peptide: 5hexenyl-XD[B5(3)]ADDAAF[PyrS2]L[3Thi][Bta]Q-NH2
modifications: staple 3-10; staple (positions not given here); not fully specified (residue 1, bridges); printed as 5hexenyl-MePro-Asp-B5-Ala-Asp-Asp-Ala-Ala-Phe-PyrS2-Leu-3Thi-BztA-Gln-NH2; also: -CH=CH- in each staple reduced to -CH2-CH2-
For B1, the IC50 (commonly the concentration that gives 50% inhibition) in test [1] was found to be 2650 nM.
Consider Ac-[αAllylPro]D[tBuAla][B5(5)]DEAAFK(iPr)[PyrS2][Phe(2-Cl)][Bta]T-NH2 (staple 1-4, 4-11) [I-1282], for which the IC50 in test [2] came to 34 nM; with Bcat-Halo, 43.1 µM. Also, the EC50 – broadly, the concentration giving half of the maximal effect – in test [3] stood at 34 nM.
As to Ac-[αAllylPro]D[tBuAla][B5(3)]DDK(iPr)AFL[PyrS2″][Phe(2-Cl)][Bta]Q-NH2 (staple 1-4, 4-11) [I-1275], the IC50 was 9 nM in test [2] and 27.8 µM with Bcat-Halo. The EC50 in test [3] was determined as 9 nM.
Turning to Ac-[αAllylPro]D[tBuAla][B5(3)]DDK(iPr)AFL[PyrS2″][Phe(2-Cl)][Bta]L-NH2 (staple 1-4, 4-11) [I-1277], the IC50 was 17 nM in test [2] and greater than 20 µM in the test with Bcat-Halo. Also, in test [3], the EC50 was 17 nM.

B2: I-2603 (peptide)
peptide: 4pentenyl-XD[B5(3)]AD[Phe(3-COOH)]AAF[PyrS2]L[3Thi][Bta]Q-NH2
modifications: staple 3-10; staple (positions not given here); not fully specified (residue 1, bridges); printed as 4pentenyl-MePro-Asp-B5-Ala-Asp-3COOHF-Ala-Ala-Phe-PyrS2-Leu-3Thi-BztA-Gln-NH2
Regarding B2, the IC50 in test [1] came out at 767 nM.
Ac-[αAllylPro]D[tBuAla][B5(5)]DDAAFK(iPr)[PyrS2][Phe(2-Cl)][Bta]T-NH2 (staple 1-4, 4-11) [I-1279]: the IC50 in test [2] was 12 nM; with Bcat-Halo, 22.9 µM. Further, in test [3], the EC50 turned out to be 12 nM.

B3: I-2604 (peptide)
peptide: 5hexenyl-XD[B5(3)]AD[Phe(3-COOH)]AAF[PyrS2]L[3Thi][Bta]Q-NH2
modifications: staple 3-10; staple (positions not given here); not fully specified (residue 1, bridges); printed as 5hexenyl-MePro-Asp-B5-Ala-Asp-3COOHF-Ala-Ala-Phe-PyrS2-Leu-3Thi-BztA-Gln-NH2; also: -CH=CH- in each staple reduced to -CH2-CH2-
As to B3, the half-inhibitory concentration (IC50) in test [1] is 1120 nM.
For the molecule Ac-[αAllylPro]D[tBuAla][B5(5)]DEAAFK(iPr)[PyrS2][Phe(2-Cl)][Bta]Q-NH2 (staple 1-4, 4-11) [I-1281], the IC50 in test [2] came to 10 nM; in the test with Bcat-Halo, 22.2 µM. The EC50 in test [3] worked out at 10 nM.
Take Ac-[αAllylPro]D[tBuAla][B5(3)]DTAAFT[PyrS2″][1Nal][Bta]S-NH2 (staple 1-4, 4-11) [I-1269]: the values for the IC50 (in test [2]; with Bcat-Halo) were 173 nM and 17.6 µM, respectively. Also, the concentration giving a half-maximal response (EC50) in test [3] was found to be 173 nM.
Turning to Ac-[αAllylPro]D[tBuAla][B5(3)]DDK(iPr)AFL[PyrS2″][Phe(2-Cl)][Bta]T-NH2 (staple 1-4, 4-11) [I-1276], the half-maximal inhibitory concentration (IC50) in test [2] is 10 nM; with Bcat-Halo, greater than 20 µM. Further, in test [3], the EC50 amounted to 10 nM.
Consider Ac-[αAllylPro]D[tBuAla][B5(5)]DDAAFK(iPr)[PyrS2][Phe(2-Cl)][Bta]Q-NH2 (staple 1-4, 4-11) [I-1278], for which the IC50 turned out to be 10 nM in test [2] and 18 µM with Bcat-Halo. The EC50 in test [3] turned out to be 10 nM.

B4: I-2607 (peptide)
peptide: BzAm2Allyl-XD[B5(3)]AD[Phe(3-COOH)]AAF[PyrS2]L[3Thi][Bta]Q-NH2
modifications: staple 3-10; staple (positions not given here); not fully specified (residue 1, bridges); printed as BzAm2Allyl-MePro-Asp-B5-Ala-Asp-3COOHF-Ala-Ala-Phe-PyrS2-Leu-3Thi-BztA-Gln-NH2; also: -CH=CH- in each staple reduced to -CH2-CH2-
B4 had a DLD1 4% Abs IC50 in test [4] greater than 20 µM. The same molecule showed an IC50 in test [1] of 904 nM.
Take Ac-[αAllylPro]D[tBuAla][B5(5)]DDAAFK(iPr)[PyrS2][Phe(2-Cl)][Bta]L-NH2 (staple 1-4, 4-11) [I-1280]: the IC50 is 22 nM in test [2] and 24.7 µM with Bcat-Halo. Besides, in test [3], the EC50 turned out to be 22 nM.
For Ac-[αAllylPro]D[tBuAla][B5(3)]DDK(iPr)AFT[PyrS2″][Phe(2-Cl)][Bta]T-NH2 (staple 1-4, 4-11) [I-1273], the IC50 in test [2] is 9 nM; with Bcat-Halo it was greater than 20 µM. Besides, the 50% effective concentration (EC50) in test [3] is 9 nM.

B5: I-2606 (peptide)
peptide: BzAm2Allyl-XD[B5(3)]ADDAAF[PyrS2]L[3Thi][Bta]Q-NH2
modifications: staple 3-10; staple (positions not given here); not fully specified (residue 1, bridges); printed as BzAm2Allyl-MePro-Asp-B5-Ala-Asp-Asp-Ala-Ala-Phe-PyrS2-Leu-3Thi-BztA-Gln-NH2; also: -CH=CH- in each staple reduced to -CH2-CH2-
In test [4], B5 showed a DLD1 4% Abs IC50 greater than 20 µM. The same molecule gave an IC50 in test [1] of 734 nM.

B6: I-2608 (peptide)
peptide: 3butenyl-XD[B5(3)]ADDAAF[PyrS2]L[3Thi][Bta]Q-NH2
modifications: staple 3-10; staple (positions not given here); not fully specified (residue 1, bridges); printed as 3butenyl-MePro-Asp-B5-Ala-Asp-Asp-Ala-Ala-Phe-PyrS2-Leu-3Thi-BztA-Gln-NH2; also: -CH=CH- in each staple reduced to -CH2-CH2-
The molecule B6 registered an IC50 in test [1] of 251 nM.

B7: I-2605 (peptide)
peptide: 4pentenyl-XD[B5(3)]AD[Phe(3-COOH)]AAF[PyrS2]L[3Thi][Bta]Q-NH2
modifications: staple 3-10; staple (positions not given here); not fully specified (residue 1, bridges); printed as 4pentenyl-MePro-Asp-B5-Ala-Asp-3COOHF-Ala-Ala-Phe-PyrS2-Leu-3Thi-BztA-Gln-NH2; also: -CH=CH- in each staple reduced to -CH2-CH2-
B7 registered an IC50 in test [1] of 608 nM.
